# Laboratory results published in patent EP4748847A1, “PEPTIDE COMPLEX HAVING VEGFR -2 AGONIST ACTIVITY” (Peptidream Inc, priority 2023, dated 2025).
# *1 amine or outer side, *2 acyl side, *3 side chain or, on linkers, in order; H or OH if unused. Bridges are numbered along the chain shown (N, C = ends). Primed or numbered codes have the meaning given here. Where no end group is shown, it is not given here. [ ]: non-standard residue; d: D form. CO(CH2CH2O)9CH2CH2CO = O=C(CCOCCOCCOCCOCCOCCOCCOCCOCCOCCC(=O)[*:2])[*:1]; hTyr = N[C@@H](CCc1ccc(O)cc1)C(=O)O; Cha = N[C@@H](CC1CCCCC1)C(=O)O; Chg = N[C@H](C(=O)O)C1CCCCC1; Tle = CC(C)(C)[C@H](N)C(=O)O; Ahp′ = not defined here; Atb = not defined here
# B1: Peptide complex Dimer Structure No. 27 (peptide)
# peptide: {CH2CO}-WW[Tle]D[alT]KDDLYF[hTyr]DCG-NH2
# modifications: thioether N-14; not fully specified (residue 6); also: homodimer: Lys6 joined to Lys6 of second copy by cPEG17c (Linker Structure No. 4)
# B2: Peptide complex Dimer Structure No. 53 (peptide)
# peptide: {CH2CO}-WW[Tle]DVKDD[Atb]Y[F4G][hTyr]DCG-NH2
# modifications: thioether N-14; reading uncertain; also: dimer: Lys6 joined to Lys6 of second copy by OCOPEG17OCO (Linker Structure No. 6)
# B3: Peptide complex Dimer Structure No. 33 (peptide)
# peptide: {CH2CO}-WW[Tle]DVKDDLYF[hTyr]SCG-NH2
# modifications: thioether N-14; also: homodimer: Lys6 joined to Lys6 of second copy by cPEG17c (Linker Structure No. 4)
# B4: Peptide complex Dimer Structure No. 31 (peptide)
# peptide: {CH2CO}-WW[Tle]DVKDDLYF[Chg]DCG-NH2
# modifications: thioether N-14; not fully specified (residue 6); also: homodimer: Lys6 joined to Lys6 of second copy by cPEG17c (Linker Structure No. 4)
# B5: Peptide complex Dimer Structure No. 42 (peptide)
# peptide: {CH2CO}-WWVDVKDDLYFVDCG-NH2
# modifications: thioether N-14; also: homodimer: Lys6 joined to Lys6 of second copy by cPEG17c (Linker Structure No. 4)
# B6: Peptide complex Dimer Structure No. 29 (peptide)
# peptide: {CH2CO}-WW[Tle]DVKDDNYF[hTyr]DCG-NH2
# modifications: thioether N-14; not fully specified (residues 5, 6); also: dimer joined at Lys6 side chains by cPEG17c
# B7: Peptide complex Dimer Structure No. 5 (peptide)
# peptide: {CH2CO}-WWVDV[Cha]DDLYFVDCG
# modifications: thioether N-14; also: dimer: C-terminus joined to second copy by PEG12c-K-PEG12c
# B8: Peptide complex Dimer Structure No. 14 (peptide)
# peptide: {CH2CO}-WWVDVKDDLYFVDCG-NH2
# modifications: thioether N-14; not fully specified (residue 6); also: homodimer: Lys6 joined to Lys6 of second copy by cPEG13c (Linker Structure No. 3)
# B9: Peptide complex Dimer Structure No. 2 (peptide)
# peptide: {CH2CO}-WWVDV[Ahp′]DDLYFVDCG
# modifications: thioether N-14; reading uncertain; also: dimer joined at Gly15 C-termini by PEG12c-K-PEG12c
# Target: T1, VEGFR-2 (human, UniProt P35968 20-1356)
# T1 sequence (P35968 20-1356): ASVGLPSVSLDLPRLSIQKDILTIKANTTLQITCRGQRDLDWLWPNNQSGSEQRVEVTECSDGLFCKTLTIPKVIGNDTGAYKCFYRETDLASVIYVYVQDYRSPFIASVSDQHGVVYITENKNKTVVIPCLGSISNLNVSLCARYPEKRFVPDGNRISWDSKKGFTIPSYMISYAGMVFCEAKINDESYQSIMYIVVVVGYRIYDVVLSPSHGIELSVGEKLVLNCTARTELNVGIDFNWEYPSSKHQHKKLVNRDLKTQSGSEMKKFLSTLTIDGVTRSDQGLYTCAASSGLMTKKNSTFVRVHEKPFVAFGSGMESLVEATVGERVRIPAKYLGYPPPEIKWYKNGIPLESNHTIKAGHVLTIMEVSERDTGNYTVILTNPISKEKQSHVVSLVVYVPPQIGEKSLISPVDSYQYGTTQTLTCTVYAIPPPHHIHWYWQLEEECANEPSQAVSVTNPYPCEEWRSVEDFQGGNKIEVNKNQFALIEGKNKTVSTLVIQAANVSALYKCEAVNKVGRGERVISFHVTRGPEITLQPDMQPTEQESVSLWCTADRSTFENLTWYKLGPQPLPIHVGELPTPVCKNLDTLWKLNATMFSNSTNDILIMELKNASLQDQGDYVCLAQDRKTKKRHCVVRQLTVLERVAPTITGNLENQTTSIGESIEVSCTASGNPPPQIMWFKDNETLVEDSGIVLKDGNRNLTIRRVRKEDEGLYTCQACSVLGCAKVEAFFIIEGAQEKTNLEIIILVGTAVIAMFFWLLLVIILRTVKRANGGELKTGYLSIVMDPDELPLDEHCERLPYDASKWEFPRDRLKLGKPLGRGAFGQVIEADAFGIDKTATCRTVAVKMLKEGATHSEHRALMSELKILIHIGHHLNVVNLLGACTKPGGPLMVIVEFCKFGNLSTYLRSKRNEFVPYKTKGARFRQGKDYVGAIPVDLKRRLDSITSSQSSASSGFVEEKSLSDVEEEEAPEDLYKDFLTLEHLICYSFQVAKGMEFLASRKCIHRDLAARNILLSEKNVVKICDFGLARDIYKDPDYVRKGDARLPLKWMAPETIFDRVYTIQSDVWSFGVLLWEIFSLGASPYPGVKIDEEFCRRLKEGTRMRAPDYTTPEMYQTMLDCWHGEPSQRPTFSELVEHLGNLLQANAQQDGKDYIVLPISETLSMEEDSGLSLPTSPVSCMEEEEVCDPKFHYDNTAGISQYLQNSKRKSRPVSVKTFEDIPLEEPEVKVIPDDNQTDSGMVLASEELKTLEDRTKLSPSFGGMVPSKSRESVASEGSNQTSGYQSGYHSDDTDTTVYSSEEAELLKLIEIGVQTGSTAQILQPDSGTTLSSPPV
# Experiment: cell-based or functional assay
row,Binder,"pERK Assay Results (AlphaLISA p-Erk1/2, HUVEC)"
1,B1,≥ 50 % activity at 10 nM
2,B2,≥ 50 % activity at 5 nM
3,B3,≥ 50 % activity at 10 nM
4,B4,≥ 50 % activity at 10 nM
5,B5,≥ 50 % activity at 20 nM
6,B6,≥ 50 % activity at 10 nM

# Target: T1, VEGFR-2
# Experiment: cell-based or functional assay
# Remark: another data set of the same source
row,Binder,"pERK Assay Results (AlphaLISA p-Erk1/2, HUVEC)"
1,B7,≥ 50 % activity at 10 nM
2,B8,≥ 50 % activity at 10 nM
3,B9,≥ 50 % activity at 100 nM
4,{CH2CO}-WWVDVK(CO(CH2CH2O)9CH2CH2CO)DDLYFVDCG-NH2 (thioether N-14; also: dimer: Lys6 joined to Lys6 of second copy by cPEG9c) [Peptide complex Dimer Structure No. 13],≥ 50 % activity at 10 nM

# Target: T1, VEGFR-2
# Experiment: cell-based or functional assay
# Remark: another data set of the same source
row,Binder,"proliferation (HUVEC, CellTiter-Glo)"
1,B1,≥ 50 % activity at 10 nM
2,B7,< 50 % activity at 100 nM
3,B8,< 50 % activity at 100 nM
4,B9,< 50 % activity at 100 nM
5,B2,≥ 50 % activity at 5 nM
6,{CH2CO}-WWVDVK(CO(CH2CH2O)9CH2CH2CO)DDLYFVDCG-NH2 (thioether N-14; also: dimer: Lys6 joined to Lys6 of second copy by cPEG9c) [Peptide complex Dimer Structure No. 13],< 50 % activity at 100 nM
7,B3,≥ 50 % activity at 10 nM
8,B4,≥ 50 % activity at 10 nM
9,B5,≥ 50 % activity at 1.25 nM
10,B6,≥ 50 % activity at 10 nM
